Biological target: the molecule itself
Assay: negative-stain transmission electron microscopy; purified RHDV2 VP60 protein alone adsorbed on glow-discharged formvar/carbon copper grids, stained with 1% uranyl acetate, imaged at 300 keV

B1: RHDV2 VP60 capsid protein (natural protein)
chain: EGKARAAPQGETAGTATTASVPGTTTDGMDPGVVATTSVVTTENASTSIATAGIGGPPQQVDQQETWRTNFYYNDVFTWSVADAPGNILYTVQHSPQNNPFTAVLSQMYAGWAGGMQFRFIVAGSGVFGGRLVAAVIPPGIEIGPGLEVRQFPHVVIDARSLEPVTITMPDLRPNMYHPTGNPGLVPTLVLSVYNNLINPFGGSTSAIQVTVETRPSEDFEFVMIRAPSSKTVDSISPADLLTTPVLTGVGTDNRWNGEIVGLQPVPGGFSTCNRHWNLNGSTFGWSSPRFAAIDHDGGNASFPGSSSSNVLELWYASAGSATDNPISQIAPDGFPDMSFVPFSGSTIPTAGWVGFGGIWNSNNGAPFVTTMQAYELGFATGAPSNPQPTTTTSGAQIVAKSIYGVANGINQTTAGLFVMASGVISTPNSSAITYTPQPNRIVNAPGTPAAAPIGKNTPIMFASVVRRTGDINAEAGSTNGTQYGAGSQPLPVTVGLSLNNYSSALMPGQFFVWQLNFASGFMELGLSVDGYFYAGTGALATLIDLSELVDIRPVGPRPSTSTLVYNLGGTTNGFSYV
notes: VP60 capsid protein of rabbit hemorrhagic disease virus 2 (RHDV2); the tag was removed after purification; After TEV cleavage a single G of the ENLYFQG site probably stays in front of E2 (surmised); Self-assembles into virus-like particles of ~30 nm; also called RHDV2 VLP; RHDV2 capsid protein; source: Baculovirus expression system (GenScript), purified, tag removed; not shown: His6, N-terminal, …
  binding result: binds

Source: PMC10303064, “Sulfated Lactosyl Archaeol Archaeosome-Adjuvanted Vaccine Formulations Targeting Rabbit Hemorrhagic Disease Virus Are Immunogenic and Efficacious” (Vaccines, 2023)
